Measured values as given in US7204989 (YANG SHENG TANG, dated 2007).

Target: the molecule itself
Assay: SDS-PAGE of thrombin-released pE2; self-association into a homodimer
Method: In addition, samples of the GE2 and pE2 peptides were heated at 100° C. for 3 minutes for subsequent analysis (Lanes 2 and 4) by SDS PAGE (A) and Western blotting (B and C). The molecular weight of these products were compared with markers (Lane 6)
The purified preparations of GE2 and pE2 were characterized by SDS PAGE and Western blotting techniques (FIG. 7). […] In addition, samples of the GE2 and pE2 peptides were heated at 100° C. for 3 minutes for subsequent analysis (Lanes 2 and 4) by SDS PAGE (A) and Western blotting (B and C).

B1: pE2 peptide, monomeric form (23 kD) (other)
chain: QLFYSRPVVSANGEPTVKLYTSVENAQQDKGIAIPHDIDLGESRVVIQDYDNQHEQDRPTPSPAPSRPFSVLRANDVLWLSLTAAEYDQSTYGSSTGPVYVSDSVTLVNVATGAQAVARSLDWTKVTLDGRPLSTIQQYSKTFFVLPLRGKLSFWEAGTTKAGYPYNYNTTASDQLLVENAAGHRVAISTYTTSLGAGPVSISAVAVLAPPPR
notes: Monomer obtained by dissociating the dimer; Also used for the self-association rows; also called pE2 monomer; heated pE2
Q: Does B1 bind?
A: binds
